Test results from article PMC9237108, “The Vibrio vulnificus stressosome is an oxygen-sensor involved in regulating iron metabolism” (Communications Biology, 2022).

B1: VvRsbR, recombinant, untagged, co-expressed with VvRsbS (natural protein, Vibrio vulnificus CMCP6, UniProt A0A3Q0KX46 1-306, looked up)
chain: MSLGSVLNKVEDADELLKLHDLTEADLALIRKFGQIMVPKLDEYVKHFYDWLRNTPEYEQYFGDAQKLQRVQDSQVRYWKTFFDARIDSAYLKERRDVGEIHARVGLPLPTYFAGMNISMVIFTKRMYDGSLYSDEYSSLVTAFTKLLHLDTTIVVDTYSRLINKRISEQSEALLAMSTPVTMIWQDILMLPIVGIIDSKRAQDIMSAVLNKISENRAKIFIMDISGVAVVDTAVANHFIKITKATKLMGCDCLVSGVSPSIARTMVQLGINVGEVRTNATLRDALENAFKIVGLTVSGLKHFPHE
notes: VvRsbR of Vibrio vulnificus CMCP6, locus VV2_0073; full-length gene amplified from genomic DNA, expressed untagged from pJPF012; Carries a heme in its N-terminal globin coupled sensor domain; In PDB 7O01 the linker helix was modelled as poly-alanine; also called VvRsbR2 (dimer)
B2: VvRsbS, recombinant, untagged, co-expressed with VvRsbR (natural protein, Vibrio vulnificus CMCP6, UniProt A0A3Q0KX63 1-117, looked up)
chain: MTMQSAISISKLQDVLIASVQVDLTESTLRDFSLDLLDAVKSTRAKGVMIELSGVKTLDGESMHRLLDVVKTVEVMGRRCLLVGLRPGVVIGLMDIGIDLASTLCVADLEQGFLYLE
notes: VvRsbS of Vibrio vulnificus CMCP6, locus VV2_0074; STAS domain made up of 115 residues; also called VvRsbS2 (dimer)

Legend:
[1] = biological target: the molecule itself; test: cryo-EM structure; purified, oxidized VvRsbR:VvRsbS complex (co-expressed in E. coli) at 0.3 mg/mL; single particle reconstructions in C1 and D2; homology models fitted into the map
[2] = biological target: B2; test: quantification of fluorescently stained SDS-PAGE bands of the purified complex; purified VvRsbR:VvRsbS complex separated by SDS PAGE, stained with Krypton, Typhoon scanner, bands quantified with ImageQuant; details: both partners purified

| Binder | stoichiometry N [1] | stoichiometry N [2] |
| --- | --- | --- |
| B1 | 2 | 2.4 VvRsbR:VvRsbS |
| B2 | 2 |  |
